Results published in paper PMC5670179, “Folding of a bacterial integral outer membrane protein is initiated in the periplasm” (Nature Communications, 2017).

B1: HA-UpaGΔ2 (domain or fragment)
chain: AGVNATDAVNVSQLKSSEAGGVRYDTKADGSIDYSNITLGGGNSGTTRISNVSAGVNNNDAVNYAQLKQSVQETKQYTDQRMVEMDNKLSKTESKLSGGIASAMAMTGLPQAYTPGASMASIGGGTYNGESAVALGVSMVSANGRWVYKLQGSTNSQGEYSAALGAGIQW
notes: UpaG, trimeric autotransporter adhesin of uropathogenic E. coli O6:H1 strain CFT073; the C-terminal 170 residues (passenger-domain fragment 1609-1689 and beta-domain segment 1689-1778) of the 1778 residue full-length protein; Made with the native UpaG signal peptide (residues 1-53) before the HA tag; the signal peptide is meant to be cleaved on export; Two glycines were inserted between signal …

How the values were obtained:
[1] = biological target: His10-UpaGΔ2(Y1735am) (E. coli O6:H1 strain CFT073); assay: SDS-PAGE of unheated (25 °C) against heated (99 °C) samples after Ni-NTA purification; cells radiolabelled, UV irradiated and PK treated; membranes solubilised in 2% DDM, Ni-NTA in 50 mM NaH2PO4 pH 8, 500 mM NaCl, 0.05% DDM; eluate kept at 25 or 99 °C in SDS sample buffer for 5 min
[2] = biological target: the molecule itself; assay: SDS- and heat-resistant oligomers on SDS-PAGE after pulse-chase labelling and immunoprecipitation; cells grown in M9 minimal medium at 37 °C, pTrc99a derivatives; TCA precipitation, immunoprecipitation with anti-HA or anti-UpaG antiserum, samples heated to 99 °C for 5 min, 8-16% Tris-glycine gels

Molecule	stoichiometry N [1]	stoichiometry N [2]
His10-UpaGΔ2(Y1735am) (from UniProt A0A0H2VCA1 1609-1778) (domain or fragment)	3	–
B1	–	3
